Results reported in paper PMC6428754, “Peptidoglycan Remodeling Enables Escherichia coli To Survive Severe Outer Membrane Assembly Defect” (mBio, 2019).

Biological target: T1, oligohistidine-tagged PBP1B (E. coli, UniProt P02919 1-844)
T1 construct: PBP1B, bifunctional peptidoglycan synthase (glycosyltransferase and DD-transpeptidase) of Escherichia coli; source: purified
T1 sequence (looked up): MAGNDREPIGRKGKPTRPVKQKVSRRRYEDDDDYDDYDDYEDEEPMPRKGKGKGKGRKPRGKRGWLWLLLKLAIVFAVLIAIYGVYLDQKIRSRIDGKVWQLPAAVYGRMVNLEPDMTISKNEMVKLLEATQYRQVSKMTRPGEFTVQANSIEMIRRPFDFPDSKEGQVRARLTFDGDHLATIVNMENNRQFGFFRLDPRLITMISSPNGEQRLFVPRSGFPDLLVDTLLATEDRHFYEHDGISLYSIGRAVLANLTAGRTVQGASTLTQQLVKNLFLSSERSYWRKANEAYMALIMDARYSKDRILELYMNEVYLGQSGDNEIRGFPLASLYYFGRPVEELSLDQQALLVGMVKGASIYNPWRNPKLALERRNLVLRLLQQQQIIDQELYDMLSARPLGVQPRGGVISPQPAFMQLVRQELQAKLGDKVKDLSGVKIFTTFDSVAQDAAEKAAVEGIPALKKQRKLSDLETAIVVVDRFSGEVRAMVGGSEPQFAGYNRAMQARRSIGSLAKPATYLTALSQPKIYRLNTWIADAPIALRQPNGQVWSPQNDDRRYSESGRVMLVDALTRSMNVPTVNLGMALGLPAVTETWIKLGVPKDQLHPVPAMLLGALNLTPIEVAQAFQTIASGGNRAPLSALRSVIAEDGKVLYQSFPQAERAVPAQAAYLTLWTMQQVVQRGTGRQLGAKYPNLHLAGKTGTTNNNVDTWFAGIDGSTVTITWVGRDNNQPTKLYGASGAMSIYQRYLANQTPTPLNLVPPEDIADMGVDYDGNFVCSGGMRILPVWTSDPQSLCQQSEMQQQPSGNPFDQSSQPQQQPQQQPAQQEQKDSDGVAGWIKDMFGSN
Experiment: MST; microscale thermophoresis curves; means ± SD from three independent experiments; which partner was labelled is not told (Text S1)
Conditions: both partners purified

- Kd: 0.112 µM
B1: LdtD (LD-transpeptidase, formerly YcbB), untagged (enzyme, E. coli, UniProt P22525 1-615, looked up)
chain: MLLNMMCGRQLSAISLCLAVTFAPLFNAQADEPEVIPGDSPVAVSEQGEALPQAQATAIMAGIQPLPEGAAEKARTQIESQLPAGYKPVYLNQLQLLYAARDMQPMWENRDAVKAFQQQLAEVAIAGFQPQFNKWVELLTDPGVNGMARDVVLSDAMMGYLHFIANIPVKGTRWLYSSKPYALATPPLSVINQWQLALDKGQLPTFVAGLAPQHPQYAAMHESLLALLCDTKPWPQLTGKATLRPGQWSNDVPALREILQRTGMLDGGPKITLPGDDTPTDAVVSPSAVTVETAETKPMDKQTTSRSKPAPAVRAAYDNELVEAVKRFQAWQGLGADGAIGPATRDWLNVTPAQRAGVLALNIQRLRLLPTELSTGIMVNIPAYSLVYYQNGNQVLDSRVIVGRPDRKTPMMSSALNNVVVNPPWNVPPTLARKDILPKVRNDPGYLESHGYTVMRGWNSREAIDPWQVDWSTITASNLPFRFQQAPGPRNSLGRYKFNMPSSEAIYLHDTPNHNLFKRDTRALSSGCVRVNKASDLANMLLQDAGWNDKRISDALKQGDTRYVNIRQSIPVNLYYLTAFVGADGRTQYRTDIYNYDLPARSSSQIVSKAEQLIR
notes: LdtD (formerly YcbB), LD-transpeptidase of Escherichia coli; Printed as 'untagged LdtD'; source: purified
